Assay results taken from the supplement of paper PMC7125110.
± gives the standard error. For some of these results: This sample holds only a part of the variants without activity.

B1: glmS ribozyme (parent)
chain: AUAAAAGCGCCAGAACUACAGAAAUGUAGUUGACGAGGAGGAGGUUUAUCGAAUUUUCGGCGGAUGCCUCCAAA

What was measured:
Details in all cases: with glucosamine-6-phosphate
[1] = variants of: B1; assay: kcat; higher = faster cleavage; RNA array
How it was run: (§1)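 kobs was derived by fitting per-tile medians to one- or two-exponential decays after normalising signals to baseline and to non-cleaving reference variants. Those signals came from barcoded ribozyme variants transcribed in situ by E. coli RNA polymerase on sequenced MiSeq chips, followed through a hybridised Cy3 probe at 37 °C and imaged over ~14 h. Glucosamine-6-phosphate (40 μM to 10 mM) in HEPES/KCl/Mg(OAc)2 buffer was flowed in. Weighted Michaelis–Menten fits across concentrations then gave kcat and KM.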

[2] = variants of: B1; assay: self-cleavage kobs at 640 uM GlcN6P; higher = faster cleavage; RNA array
How it was run: as §1

[3] = variants of: B1; assay: self-cleavage kobs at 2500 uM GlcN6P; higher = faster cleavage; RNA array
How it was run: as §1

[4] = variants of: B1; assay: KM; higher = weaker cofactor use; RNA array
How it was run: as §1

[5] = variants of: B1; assay: self-cleavage kobs at 40 uM GlcN6P; higher = faster cleavage; RNA array
How it was run: as §1

[6] = variants of: B1; assay: self-cleavage kobs at 160 uM GlcN6P; higher = faster cleavage; RNA array
How it was run: as §1

[7] = variants of: B1; assay: self-cleavage kobs at 10000 uM GlcN6P; higher = faster cleavage; RNA array
How it was run: as §1

| Variant | kcat [1] | self-cleavage kobs at 640 uM GlcN6P [2] | self-cleavage kobs at 2500 uM GlcN6P [3] | KM [4] | self-cleavage kobs at 40 uM GlcN6P [5] | self-cleavage kobs at 160 uM GlcN6P [6] | self-cleavage kobs at 10000 uM GlcN6P [7] |
| --- | --- | --- | --- | --- | --- | --- | --- |
| AUAAAAGCGCCAGAACUACAGAAAUGUAGUUGACGAGGAGGAGGUAUAUCGAAUUUUAGGCGGAUGCCUCCAAA [U46A C58A] | 2.63e-05 ± 4.4e-06 s⁻¹ |  |  |  |  |  |  |
| AUAAAAGCGCCAGAACUACAGAAAUGUAGUUGAGGAGAAGGAGGUUUAUCGAAUUUUAGGCGGAUGCGUCCAAA [C34G G38A C58A C68G] | 5.13e-05 ± 7.5e-06 s⁻¹ | 5.22e-05 ± 1.6e-05 s⁻¹ | 4.79e-05 ± 1.7e-05 s⁻¹ |  |  |  |  |
| AUAAAAGCGCCAGAACUACAGAAAUGUAGUUGACGAGGGGGAGGUUUAUCGAUUUUUCGGCGGAUGCCUCCAAA [A39G A53U] | 0.0202 ± 0.0043 s⁻¹ | 0.0101 ± 0.0016 s⁻¹ | 0.0119 ± 0.0027 s⁻¹ | 805 ± 260 µM | 0.00108 ± 0.00016 s⁻¹ | 0.00271 ± 0.00057 s⁻¹ | 0.0229 ± 0.0041 s⁻¹ |
| AUAAAAGCGCCAGAACUACAGAAAUGUAGCUGACGAGGAGGAGGUUUAUCGAAUUUUCGGCGGGUGCCUCCAAA [U30C A64G] | 0.000351 ± 3.3e-05 s⁻¹ | 0.000122 ± 1.4e-05 s⁻¹ | 0.000267 ± 3e-05 s⁻¹ | 1100 ± 200 µM |  | 4.88e-05 ± 1.1e-05 s⁻¹ | 0.000293 ± 4.9e-05 s⁻¹ |
| AUAAAAGCGCCAGAACUACAGAAAUGUAGUUGACGAGGAAGAGGUUUAUGGAAUUUUCGGCGGAUGCCUCCAAA [G40A C50G] | < 1e-05 s⁻¹ |  |  |  |  |  |  |
| AUAAAAGCGCCAGAACUACAGAAAUGUAGUUGACGAGGAGGAGGUACAUCGAAUUUUCGGCGGAUGCCUCCAAA [U46A U47C] | 0.00192 ± 0.00044 s⁻¹ | 0.00034 ± 5.6e-05 s⁻¹ | 0.00121 ± 0.00021 s⁻¹ | 2240 ± 840 µM | 5.61e-05 ± 1.2e-05 s⁻¹ | 0.000141 ± 2.8e-05 s⁻¹ | 0.00157 ± 0.00019 s⁻¹ |
| AUAAAAGCGCGAGAAUUACAGAAAUGUAGUUGACGAGGAGGAGGUUUAUCGAAUUUUCGGCGGAUGCCUCCAAA [C11G C16U] | < 1e-05 s⁻¹ |  |  |  |  | < 1e-05 s⁻¹ |  |
| AUAAAAGCGCCAGAACUACAGAAAUGUAGUUGACGAGGAGGAGGUUGAUCGAAUUUGCGGCGGAUGCCUCCAAA [U47G U57G] | 6.2e-05 ± 9.2e-06 s⁻¹ |  | 6.68e-05 ± 2.2e-05 s⁻¹ |  |  |  | 5.61e-05 ± 1.2e-05 s⁻¹ |
| AUAAAAGCGCCAGAAAUACAGAAAUGUAGUUGACGAGGAGGAGGUUUAUCGAAUUUUCGGCGGAUGUCUCCAAA [C16A C67U] | 0.000302 ± 4.6e-05 s⁻¹ | 0.000122 ± 1.3e-05 s⁻¹ | 0.000286 ± 3.2e-05 s⁻¹ | 782 ± 280 µM |  | 6.4e-05 ± 1.4e-05 s⁻¹ | 0.000261 ± 3.1e-05 s⁻¹ |
| AUAAAAGCGACAGAACUACAGAAAUGUAGUUGACGAGGAGGAGGUUUAUCGAAUUUUCAGCGGAUGCGCCCAAA [C10A G59A C68G U69C] | 3.77e-05 ± 1.1e-05 s⁻¹ |  |  |  |  |  |  |
